Experiments:
[1] = molecular target: soluble DP4 (HLA-DPA1*01:03/DPB1*04:01) (human); test: fluorescence polarisation
[2] = molecular target: soluble DP4 (HLA-DPA1*01:03/DPB1*04:01) (human); test: fluorescence polarisation; remark: listed apart in the source

Molecule	IC50 [1]	fold change of binding against the OC43 peptide P4 [2]
OC43 hemagglutinin esterase peptide 259–273 (P1)	< 1000 nM	
RSFIEDLLFNKVTLA (modifications not checked) [SARS-CoV-2 homolog of the OC43 peptide P4]		10 fold
